US20180244730A1

What was measured:
[1] = biological target: SnoopCatcher (Streptococcus pneumoniae); experiment: time-course of isopeptide bond formation, SDS-PAGE densitometry, 1:1 ratio
[2] = biological target: SnoopCatcher (Streptococcus pneumoniae); experiment: time-course of isopeptide bond formation, SDS-PAGE densitometry, excess of SnoopTag-MBP

SnoopTag-MBP
reaction yield [1]: 80%
percent of SnoopCatcher consumed [2]: 100%
